Assays:
[1] = target: T1, mouse B6 class I antigens (D^b or K^b molecules on the surface of RMA-S cells) (mouse, UniProt P01887 21-119); test: binding of 9-mer peptides within p117-139 to mouse B6 (H-2^b) class I; RMA-S cell assay, flow cytometry
[2] = target: T1, mouse B6 class I antigens (D^b or K^b …); test: RMA-S cells incubated with peptide (25 ug/ml), stained with FITC anti-D^b or anti-K^b, flow cytometry

T1 sequence (P01887 21-119): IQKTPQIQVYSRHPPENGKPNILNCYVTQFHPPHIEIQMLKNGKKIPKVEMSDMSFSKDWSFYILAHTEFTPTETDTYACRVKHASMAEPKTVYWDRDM

| Binder | Binding Affinity to Mouse MHC Class I (%) [1] | Binding Affinity to Mouse MHC Class I (% increase of D^b or K^b on RMA-S cells) [2] |
| --- | --- | --- |
| FPNAPYLPS [WT1 peptide P128-136 (FPNAPYLPS)] | 1% | – |
| CMTWNQMNL [WT1 peptide p235-243 (CMTWNQMNL)] | – | 33.6% |
| QASSGQARM [WT1 peptide P119-127 (QASSGQARM)] | 2% | – |
| NQMNLGATL [WT1 peptide p239-247 (NQMNLGATL)] | – | 1% |
| ALLPAVPSL (also called human p10-18) [WT1 peptide p10-18 human (ALLPAVPSL)] | – | 2.2% |
| SQASSGQAR [WT1 peptide P118-126 (SQASSGQAR)] | 2% | – |
| MFPNAPYLP [WT1 peptide P127-135 (MFPNAPYLP)] | 2% | – |
| QMTSQLECM [WT1 peptide p228-236 (QMTSQLECM)] | – | 1.2% |
| NLYQMTSQL [WT1 peptide p225-233 (NLYQMTSQL)] | – | 5.8% |
| YSSDNLYQM [WT1 peptide p221-229 (YSSDNLYQM)] | – | 0.8% |
| SSGQARMFP [WT1 peptide P121-129 (SSGQARMFP)] | 1% | – |
| APYLPSCLE [WT1 peptide P131-139 (APYLPSCLE)] | 1% | – |
| PSQASSGQA [WT1 peptide P117-125 (PSQASSGQA)] | 2% | – |
| GCNKRYFKL [WT1 peptide p329-337 (GCNKRYFKL)] | – | 1.2% |
| QARMFPNA [WT1 peptide P124-132 (printed QARMFPNA)] | 1% | – |
| NAPYLPSCL [WT1 peptide P130-138 (NAPYLPSCL)] | 79% | – |
| ARMFPNAPY [WT1 peptide P125-133 (ARMFPNAPY)] | 1% | – |
| SCLESQPAI (also called human p136-144) [WT1 peptide p136-144 human (SCLESQPAI)] | – | 52% |
| ASSGQARMF [WT1 peptide P120-128 (ASSGQARMF)] | 1% | – |
| PNAPYLPSC [WT1 peptide P129-137 (PNAPYLPSC)] | 1% | – |

Source: patent US20030215458A1 (published 2003)
